{"source": "the supplement of paper PMC11316812", "key": {"hTERT-HMEC": {"test_system": "hTERT-HMEC", "test": "percentage of EdU-negative (G0-arrested) nuclei per well, 72 h; higher = more G0 arrest", "settings": "reference: sequence is the full UniProt precursor, the tested protein was the secreted form or ectodomain"}, "MCF7": {"test_system": "MCF7", "test": "percentage of EdU-negative (G0-arrested) nuclei per well, 72 h; higher = more G0 arrest", "settings": "reference: sequence is the full UniProt precursor, the tested protein was the secreted form or ectodomain"}, "[1]": {"settings": "protein concentration 0.0251975 µM"}, "[2]": {"settings": "protein concentration 0.251975 µM"}, "[3]": {"settings": "protein concentration 0.0225 µM"}, "[4]": {"settings": "protein concentration 0.0257143 µM"}, "[5]": {"settings": "protein concentration 0.257143 µM"}, "[6]": {"settings": "protein concentration 0.02625 µM"}, "[7]": {"settings": "protein concentration 0.2625 µM"}, "[8]": {"settings": "protein concentration 0.0301275 µM"}, "[9]": {"settings": "protein concentration 0.301275 µM"}}, "note": "± gives the standard deviation of the averaged measurements.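 Further: secreted proteins added to cultured cells, EdU pulse at the end, nuclei found by Hoechst imaging, EdU status from nuclear versus surrounding ring intensity ratio, PBS as neutral control.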", "data": [{"sequence": "MAPLKMLALVTLLLGASLQHIHAARGTNVGRECCLEYFKGAIPLRKLKTWYQTSEDCSRDAIVFVTVQGRAICSDPNNKRVKNAVKYLQSLERS", "values": [{"measurement": "percentage of EdU-negative", "setting": "hTERT-HMEC; [1]", "value": "5.05 ± 1.6", "unit": "%"}, {"measurement": "percentage of EdU-negative", "setting": "hTERT-HMEC; [2]", "value": "5.85 ± 0.93", "unit": "%"}, {"measurement": "percentage of EdU-negative", "setting": "MCF7; [1]", "value": "26 ± 0.51", "unit": "%"}, {"measurement": "percentage of EdU-negative", "setting": "MCF7; [2]", "value": "25.9 ± 0.28", "unit": "%"}]}, {"sequence": "MWTLGRRAVAGLLASPSPAQAQTLTRVPRPAELAPLCGRRGLRTDIDATCTPRRASSNQRGLNQIWNVKKQSVYLMNLRKSGTLGHPGSLDETTYERLAEETLDSLAEFFEDLADKPYTFEDYDVSFGSGVLTVKLGGDLGTYVINKQTPNKQIWLSSPSSGPKRYDWTGKNWVYSHDGVSLHELLAAELTKALKTKLDLSSLAYSGKDA", "values": [{"measurement": "percentage of EdU-negative", "setting": "hTERT-HMEC; [3]", "value": "4.76 ± 0.24", "unit": "%"}, {"measurement": "percentage of EdU-negative", "setting": "hTERT-HMEC; protein concentration 0.225 µM", "value": "9.96 ± 1", "unit": "%"}, {"measurement": "percentage of EdU-negative", "setting": "MCF7; [3]", "value": "25.6 ± 0.72", "unit": "%"}, {"measurement": "percentage of EdU-negative", "setting": "MCF7; protein concentration 0.225 µM", "value": "26.7 ± 4", "unit": "%"}]}, {"sequence": "MKPWILLLVMFISGVVMLLPVLGSFWNKDPFLDMIRETEQCWVQPPYKYCEKRCTKIMTCVRPNHTCCWTYCGNICLDNEEPLKSMLNP [Q8NEX5]", "values": [{"measurement": "percentage of EdU-negative", "setting": "hTERT-HMEC; [4]", "value": "5.54 ± 0.81", "unit": "%"}, {"measurement": "percentage of EdU-negative", "setting": "hTERT-HMEC; [5]", "value": "5.1 ± 0.81", "unit": "%"}, {"measurement": "percentage of EdU-negative", "setting": "MCF7; [4]", "value": "26 ± 0.26", "unit": "%"}, {"measurement": "percentage of EdU-negative", "setting": "MCF7; [5]", "value": "26.31 ± 0.064", "unit": "%"}]}, {"sequence": "MPRYVPLLLLLLLLRCSERGGGVNFGEKDAKVPGTWRDGVRVPGEGASWDSDRASPERRYGIVGLSQSISTKHPETSPKDSRIRENDVTADGRTTEDHITADPGTTEDSVTADPGTTEDNVTVDPGTTEGSVTADPATTKDYVSADPGTTKDSVTADPGTTENFVTADPGTTKDSITADPRTTEDSVTADPGTTKHSITVDPGTTEDSVTADPGTTKHSITADPGTTEDSVTADPGTTEDETTKHGDTHLL [E2RYF7]", "values": [{"measurement": "percentage of EdU-negative", "setting": "hTERT-HMEC; [3]", "value": "5.3 ± 1.4", "unit": "%"}, {"measurement": "percentage of EdU-negative", "setting": "hTERT-HMEC; protein concentration 0.225 µM", "value": "5.54 ± 0.41", "unit": "%"}, {"measurement": "percentage of EdU-negative", "setting": "MCF7; [3]", "value": "23.6 ± 2.3", "unit": "%"}, {"measurement": "percentage of EdU-negative", "setting": "MCF7; protein concentration 0.225 µM", "value": "24.8 ± 0.67", "unit": "%"}]}, {"sequence": "MAAAASPAILPRLAILPYLLFDWSGTGRADAHSLWYNFTIIHLPRHGQQWCEVQSQVDQKNFLSYDCGSDKVLSMGHLEEQLYATDAWGKQLEMLREVGQRLRLELADTELEDFTPSGPLTLQVRMSCECEADGYIRGSWQFSFDGRKFLLFDSNNRKWTVVHAGARRMKEKWEKDSGLTTFFKMVSMRDCKSWLRDFLMHRKKRLEPTAPPTMAPGLAQPKAIATTLSPWSFLIILCFILPGI [Q9BZM4]", "values": [{"measurement": "percentage of EdU-negative", "setting": "hTERT-HMEC; [6]", "value": "5.34 ± 0.19", "unit": "%"}, {"measurement": "percentage of EdU-negative", "setting": "hTERT-HMEC; [7]", "value": "4.8 ± 0.37", "unit": "%"}, {"measurement": "percentage of EdU-negative", "setting": "MCF7; [6]", "value": "25.38 ± 0.21", "unit": "%"}, {"measurement": "percentage of EdU-negative", "setting": "MCF7; [7]", "value": "27.9 ± 1.3", "unit": "%"}]}, {"sequence": "MRALRDRAGLLLCVLLLAALLEAALGLPVKKPRLRGPRPGSLTRLAEVSASPDPRPLKEEEEAPLLPRTHLQAEPHQHGCWTVTEPAAMTPGNATPPRTPEVTPLRLELQKLPGLANTTLSTPNPDTQASASPDPRPLREEEEARLLPRTHLQAELHQHGCWTVTEPAALTPGNATPPRTQEVTPLLLELQKLPELVHATLSTPNPDNQVTIKVVEDPQAEVSIDLLAEPSNPPPQDTLSWLPALWSFLWGDYKGEEKDRAPGEKGEEKEEDEDYPSEDIEGEDQEDKEEDEEEQALWFNGTTDNWDQGWLAPGDWVFKDSVSYDYEPQKEWSPWSPCSGNCSTGKQQRTRPCGYGCTATETRTCDLPSCPGTEDKDTLGLPSEEWKLLARNATDMHDQDVDSCEKWLNCKSDFLIKYLSQMLRDLPSCPCAYPLEAMDSPVSLQDEHQGRSFRWRDASGPRERLDIYQPTARFCLRSMLSGESSTLAAQHCCYDEDSRLLTRGKGAGMPNLISTDFSPKLHFKFDTTPWILCKGDWSRLHAVLPPNNGRACTDNPLEEEYLAQLQEAKEY [Q6H9L7]", "values": [{"measurement": "percentage of EdU-negative", "setting": "hTERT-HMEC; [8]", "value": "5.26 ± 0.1", "unit": "%"}, {"measurement": "percentage of EdU-negative", "setting": "hTERT-HMEC; [9]", "value": "5.07 ± 0.18", "unit": "%"}, {"measurement": "percentage of EdU-negative", "setting": "MCF7; [8]", "value": "24.4 ± 0.93", "unit": "%"}, {"measurement": "percentage of EdU-negative", "setting": "MCF7; [9]", "value": "28.4 ± 1.3", "unit": "%"}]}, {"sequence": "MVSRMVSTMLSGLLFWLASGWTPAFAYSPRTPDRVSEADIQRLLHGVMEQLGIARPRVEYPAHQAMNLVGPQSIEGGAHEGLQHLGPFGNIPNIVAELTGDNIPKDFSEDQGYPDPPNPCPVGKTADDGCLENTPDTAEFSREFQLHQHLFDPEHDYPGLGKWNKKLLYEKMKGGERRKRRSVNPYLQGQRLDNVVAKKSVPHFSDEDKDPE", "values": [{"measurement": "percentage of EdU-negative", "setting": "hTERT-HMEC; [3]", "value": "5.414 ± 0.019", "unit": "%"}, {"measurement": "percentage of EdU-negative", "setting": "hTERT-HMEC; protein concentration 0.225 µM", "value": "5.28 ± 0.35", "unit": "%"}, {"measurement": "percentage of EdU-negative", "setting": "MCF7; [3]", "value": "26.6 ± 1.8", "unit": "%"}, {"measurement": "percentage of EdU-negative", "setting": "MCF7; protein concentration 0.225 µM", "value": "25.7 ± 2.2", "unit": "%"}]}]}
